For test [1], the target named is T1, recombinant protein IL-34 (Peprotech Ref 200-34, whole protein without signal peptide with His tag on … (UniProt Q6ZMJ4 21-242)).
T1 construct: mature; also called IL-34 protein; recombinant IL-34; not shown: C-terminal His tag
T1 sequence (looked up): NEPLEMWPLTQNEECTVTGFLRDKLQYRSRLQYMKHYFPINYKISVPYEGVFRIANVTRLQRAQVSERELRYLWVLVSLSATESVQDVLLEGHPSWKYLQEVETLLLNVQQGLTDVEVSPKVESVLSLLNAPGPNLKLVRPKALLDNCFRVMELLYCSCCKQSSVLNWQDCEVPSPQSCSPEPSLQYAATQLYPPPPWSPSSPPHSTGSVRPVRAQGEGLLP
Nature of the test: SPR (BIAcore T100), antibody captured on immobilised polyclonal anti-mouse antibody, IL-34 as analyte, 25 °C, 1:1 model. Here is the method:
(§1) Theses interaction were performed at 25° C., in HBS-P+ buffer (HEPES 10 mM pH 7.4; NaCl 150 mM; P20 0.05%) by administrating different concentrations of IL-34 obtained by serial dilution of the protein IL-34 (Peprotech Ref 200-34, whole protein without signal peptide with His tag on C-terminal).
(§2) The regeneration is performed by administering 10 mM of Glycine-HCl buffer at pH=1.7 allowing dissociating the antibody IL-34 from immobilized polyclonal antibody.
The obtained results are shown by sensograms of FIG. 2.
(In general: Surface plasmon resonance follows binding to a sensor surface in real time, without labels.)

Test [2] addresses T2, M-CSF receptor (R&D-Systems ref: 329-MR) (UniProt P07333 20-512).
T2 construct: Bought soluble receptor, immobilised covalently on a CM5 chip; also called CSF-1 receptor; receptor M-CSF-R
Nature of the test: SPR (BIAcore T100), antibody injected over immobilised M-CSF-R. Here is the method:
The measurement of surface plasmon resonance (SPR) was performed on BIACore T100. The microarrays CM5 (CM-dextran, 1-ethyl-3-(3-[…]) carbodiimide hydrochloride (EDC) and N-Hydroxysuccinimide (NHS) have been purchased by GE Healthcare BIAcore and used according to manufacture instructions.
The ligand, M-CSF receptor (R&D-Systems ref: 329-MR) was immobilized covalently on the CM5 microarray surface. Capture level of […] is comprised between 600 and 800 RU.
Theses interaction were performed at 25° C., in HBS-P+ buffer (HEPES 10 mM pH 7.4; NaCl 150 mM; P20 0.05%).

Test [3] addresses T1, recombinant protein IL-34 (Peprotech …). The test is described as follows: SPR (BIAcore T100), antibody captured, IL-34 as analyte. The procedure:
as §1, §2

From US20170342148A1 (UNIVERSITE DE NANTES, published 2017) come the findings set out here.

T2 sequence (P07333 20-512 limits assumed): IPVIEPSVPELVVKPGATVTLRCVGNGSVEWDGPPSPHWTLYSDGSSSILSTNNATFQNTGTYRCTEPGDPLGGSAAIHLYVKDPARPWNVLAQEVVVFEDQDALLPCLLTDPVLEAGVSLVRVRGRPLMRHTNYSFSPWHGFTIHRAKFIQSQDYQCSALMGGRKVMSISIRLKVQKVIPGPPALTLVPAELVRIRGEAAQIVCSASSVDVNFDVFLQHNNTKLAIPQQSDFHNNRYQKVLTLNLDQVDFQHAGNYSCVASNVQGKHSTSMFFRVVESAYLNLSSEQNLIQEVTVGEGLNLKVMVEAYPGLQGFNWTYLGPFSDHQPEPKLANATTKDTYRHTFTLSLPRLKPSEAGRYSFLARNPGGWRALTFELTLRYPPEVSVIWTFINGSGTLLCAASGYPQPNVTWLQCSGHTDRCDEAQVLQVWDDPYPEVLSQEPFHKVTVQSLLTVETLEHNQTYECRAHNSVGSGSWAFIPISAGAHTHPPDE

B1: murine anti-IL-34 antibody (clone BT34) (antibody, V domains shown)
VH: EVQLQQFGAELVKPGASVKISCKASGYTFTDYNMDWVKQSHGKSLEWIGDINPNYESTTYNQKFKGKATLTVDRSSSTAYMELRSLTSEDTAVYYCLRSGGDYWGQGTTLTVSS
VL: DVLMTQTPLSLPVGLGDQASISCRSSQTIVHSNGKTYLEWYLQKPGQSPKLLIYKVSNRFSGVPDRFSGSGSGTDFTLKISRVEAEDLGVYYCFQGSHVPLTFGAGTKLELK
notes: Murine monoclonal antibody from a hybridoma; No single sentence ties these numbers to BT34; also called anti-IL-34 antibody BT34; anti-IL-34 BT34 clone
By Kd is commonly meant a measure of binding affinity in units of concentration. What is called koff is the first-order rate constant of dissociation. As usually defined, the kon is the rate constant with which the complex forms. For B1, in test [1], the Kd came to 9.4 pM, the koff was 2.9e-07 s⁻¹ and the kon came out at 31000 M⁻¹ s⁻¹. The binding result in test [2] was “no binding (tested: 10 nM)”. The koff in test [3] is < 1e-06 s⁻¹.
